What all share (experiment): cross-linking; in vivo BMOE cross-link of cysteine pairs in yeast cells arrested in late G1 by non-degradable Sic1(9m); Scc1-PK immunoprecipitated, western blot, band intensities quantified
What all share (settings): partners not purified
In general terms: In western blotting, separated proteins are transferred to a membrane and probed.

One assay addresses T1, Smc3 S72C E1155Q (S. cerevisiae, UniProt P47037 1-1230, S72C | E1155Q).
T1 construct: Smc3, S. cerevisiae; also called EQ mutant version of Smc3^S72C; source: S. cerevisiae W303, ectopically expressed, late G1 arrested cells, whole-cell extract
T1 sequence (looked up): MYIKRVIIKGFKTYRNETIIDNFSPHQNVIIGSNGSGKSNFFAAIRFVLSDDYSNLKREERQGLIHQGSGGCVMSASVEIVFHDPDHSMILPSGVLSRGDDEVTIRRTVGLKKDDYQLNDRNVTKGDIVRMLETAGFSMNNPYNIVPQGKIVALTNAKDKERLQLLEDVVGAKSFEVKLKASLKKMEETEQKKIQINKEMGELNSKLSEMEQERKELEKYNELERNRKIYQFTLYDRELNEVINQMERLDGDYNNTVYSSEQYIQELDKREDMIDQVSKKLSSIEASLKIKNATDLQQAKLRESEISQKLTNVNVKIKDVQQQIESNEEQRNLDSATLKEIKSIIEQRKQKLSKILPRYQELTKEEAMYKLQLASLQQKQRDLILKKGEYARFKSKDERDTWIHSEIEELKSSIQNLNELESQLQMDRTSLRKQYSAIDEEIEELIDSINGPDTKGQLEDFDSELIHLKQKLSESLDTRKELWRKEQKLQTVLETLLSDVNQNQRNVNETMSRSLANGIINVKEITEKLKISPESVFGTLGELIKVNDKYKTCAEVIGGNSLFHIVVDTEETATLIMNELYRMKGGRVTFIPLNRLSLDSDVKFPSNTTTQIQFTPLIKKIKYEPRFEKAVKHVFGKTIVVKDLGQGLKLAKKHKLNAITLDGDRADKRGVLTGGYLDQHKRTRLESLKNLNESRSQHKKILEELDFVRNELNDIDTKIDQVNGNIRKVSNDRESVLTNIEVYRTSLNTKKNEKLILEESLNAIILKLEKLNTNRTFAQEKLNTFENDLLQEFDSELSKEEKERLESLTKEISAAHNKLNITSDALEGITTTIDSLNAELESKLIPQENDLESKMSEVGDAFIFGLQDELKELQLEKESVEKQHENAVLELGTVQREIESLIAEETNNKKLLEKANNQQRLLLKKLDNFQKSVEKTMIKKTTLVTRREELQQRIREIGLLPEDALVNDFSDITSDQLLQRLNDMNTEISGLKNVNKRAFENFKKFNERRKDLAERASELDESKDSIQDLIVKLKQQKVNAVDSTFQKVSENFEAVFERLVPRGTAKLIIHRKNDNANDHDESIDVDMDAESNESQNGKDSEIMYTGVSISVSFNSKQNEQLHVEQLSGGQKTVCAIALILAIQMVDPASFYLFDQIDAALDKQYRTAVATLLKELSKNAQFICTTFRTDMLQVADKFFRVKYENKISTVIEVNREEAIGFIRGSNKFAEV

The next assay concerns the target T2, Smc3^QQ S72C (S. cerevisiae, UniProt P47037 1-1230, S72C | K112Q | K113Q).
T2 construct: Smc3, S. cerevisiae; source: S. cerevisiae W303, late G1 arrested cells, whole-cell extract
T2 sequence (looked up): T1 sequence (looked up) with K112Q, K113Q, Q1155E

A further assay concerns the target T3, Smc3^E1155Q Q67C K1004C (S. cerevisiae, UniProt P47037 1-1230, Q67C | K1004C | E1155Q).
T3 construct: Smc3, S. cerevisiae, ATP hydrolysis mutant; source: S. cerevisiae W303, late G1 arrested cells, whole-cell extract
T3 sequence (looked up): T1 sequence (looked up) with Q67C, C72S, K1004C

Substitutions are numbered along the chain they refer to. Numbers in names are those of the source.

B1: Scc2 E819C (natural protein, S. cerevisiae, UniProt Q04002 1-1493, looked up)
chain: MSYPGKDKNIPGRIIEALEDLPLSYLVPKDGLAALVNAPMRVSLPFDKTIFTSADDGRDVNINVLGTANSTTSSIKNEAEKERLVFKRPSNFTSSANSVDYVPTNFLEGLSPLAQSVLSTHKGLNDSINIEKKSEIVSRPEAKHKLESVTSNAGNLSFNDNSSNKKTKTSTGVTMTQANLAEQYLNDLKNILDIVGFDQNSAEIGNIEYWLQLPNKKFVLTTNCLTKLQMTIKNITDNPQLSNSIEITWLLRLLDVMVCNIKFSKSSLKMGLDDSMLRYIALLSTIVLFNIFLLGKNDSNLHRESYIMEPVNFLSDLIESLKILTIEYGSLKIEFDTFQEALELLPKYIRNGPFLDDNVTAKLVYIFSDLLMNNDIEATTNIQFQSFWDNVKRISSDILVSLFGSFDQQRGFIIEELLSHIEKLPTKRIQKKLRKVGNQNIYITDFTFTLMSMLENINCYSFCNQMKDIAPENIDLLKNEYKKQEEFLFNIVEHINDTILERFFKNPSALRYVIDNFVQDLLLLISSPQWPVTEKILSSLLKRLLSVYSPSMQVSANIETICLQLIGNIGSTIFDIKCSTRDHEDNNLIKMINYPETLPHFFKSFEECIAYNETIKCRRSATRFLWNLRLGTILILEEYTKDAKEQIITVDNELKKILEQIKDGGLGPELENREADFSTIKLDYFSILHAFELLNLYDPYLKLILSLLAKDKIKLRSTAIKCLSMLASKDKVILSNPMVKETIHRRLNDSSASVKDAILDLVSINSSYFEFYQQINNNYNDDSIMVRKHVLRINEKMYDETNDIVTKVYVIARILMKICDEEDNIIDMARLILLNRWILKVHEVLDQPEKLKEISSSVLLVMSRVAIMNEKCSQLFDLFLNFYLLNKEAHSKEAYDKITHVLTILTDFLVQKIVELNSDDTNEKNSIVDKQNFLNLLAKFADSTVSFLTKDHITALYPYMVSDEKSDFHYYILQVFRCTFEKLANFKQKFLYDLETTLLSRLPKMNVREIDEAMPLIWSVATHRHDTARVAKACSSCLSHLHPYINKANNEEAAIVVDGKLQRLIYLSTGFARFCFPKPSNDKIAFLQEGETLYEHITKCLLVLSKDKITHVIRRVAVKNLTKLCGNHPKLFNSRHVLHLLDKEFQSDQLDIKLVILESLYDLFLLEERKSVRNTGVNSTLSSNSILKKKLLKTNRVEFANDGVCSALATRFLDNILQLCLLRDLKNSLVAIRLLKLILKFGYTNPSHSIPTVIALFASTSQYIRHVAYELLEDLFEKYETLVFSSLSRGVTKAIHYSIHTDEKYYYKHDHFLSLLEKLCGTGKKNGPKFFKVLKRIMQSYLDDITDLTSTNSSVQKSIFVLCTNISNITFVSQYDLVSLLKTIDLTTDRLKEVIMDEIGDNVSSLSVSEEKLSGIILIQLSLQDLGTYLLHLYGLRDDVLLLDIVEESELKNKQLPAKKPDISKFSAQLENIEQYSSNGKLLTYFRKHVKDT
notes: Scc2, S. cerevisiae; source: S. cerevisiae W303, in vivo, whole-cell extract
For the molecule B1, the “fold change of the crosslink against wild-type Smc3 (S72C)” value with Smc3 S72C E1155Q is around 2 fold. Moreover, in the assay with Smc3^QQ S72C, the “crosslinking efficiency relative to wild type” value was around 10%.

B2: Scc2 D369C T1175C (natural protein, S. cerevisiae, UniProt Q04002 1-1493, looked up)
chain: B1 chain with D369C, C819E, T1175C
notes: Scc2, S. cerevisiae; source: S. cerevisiae W303, late G1 arrested cells, whole-cell extract
On to B2, for which the “double crosslink band relative to that of smc3 S72C K1004C E1155Q with scc2 E819C D369C” value with Smc3^E1155Q Q67C K1004C is around 15%.

The values are drawn from publication PMC10516938, “Conformational dynamics of cohesin/Scc2 loading complex are regulated by Smc3 acetylation and ATP binding” (Nature Communications, 2023).
